The assay has as its target PU.1 DNA-binding domain (PU.1^DBD) (human, UniProt P17947 168-270). Briefly: NMR titration.

B1: EWS low-complexity domain (EWS^LCD) (domain or fragment)
chain: ASTDYSTYSQAAAQQGYSAYTAQPTQGYAQTTQAYGQQSYGTYGQPTDVSYTQAQTTATYGQTAYATSYGQPPTGYTTPTAPQAYSQPVQGYGTGAYDTTTATVTTTQASYAAQSAYGTQPAYPAYGQQPAATAPTRPQDGNKPTETSQPQSSTGGYNQPSLGYGQSNYSYPQVPGSYPMQPVTAPPSYPPTSYSSTQPTSYDQSSYSQQNTYGQPSSYGQQSSYGQQSSYGQQPPTSYPPQTGSYSQAPSQYSQQSSSYGQQ
For B1, the binding result is listed as “binds”.

(Values after publication PMC12107149 (Proceedings of the National Academy of Sciences of the …, 2022).)
